Data reported in publication PMC3115949.

Substrate: O=P(O)(O)O
Assay: cells, lysate or membranes
Settings: labelled compound, whole yeast cells, 5 min, 30 °C, glucose-energized, Pi 50-2000 µM, proton symport, pH of Km assay not stated

Protein | Km
GmPT2 (Glycine max) (protein) MAGGQLGVLNALDVAKTQWYHFTAIVIAGMGFFTDAYDLFCISLVTKLLGRLYYTDITNPKPGVLPPNVQAAVTGVALCGTLAGQLFFGWLGDKLGRKRVYGLTLMLMVVCSVASGLSFGDTPKGVMATLCFFRFWLGFGIGGDYPLSATIMSEYANKKTRGAFIAAVFAMQGFGILAGGIVALIVSSAYDHKYDLPSYKDNPAGSKVDSLDYVWRIILMFGAVPAGLTYYWRMKMPETARYTALVAKNAKQAASDMSKVLQVEVEAEEDKLQHMVESEHQKYGLFSKEFAKRHGLHLVGTTVTWFLLDIAFYSQNLFQKDIFSAIGWIPPAQDMNAIHEVYRIARAQTLIALCSTVPGYWFTVAFIDIMGRFAIQLMGFFFMTVFMFALAIPYNHWKNHNNIGFVVMYSFTFFFSNFGPNATTFVVPAEIFPARLRSTCHGISAAAGKAGAIVGAFGFLYAAQSTNPDKVDHGYPTGIGVKNSLIVLGVINFFGMVFTLLVPESKGKSLEELSGENEDDGAEAIEMAGSARTVPV | 6.63 mM
GmPT1 (Glycine max) (protein) MAGGQLGVLNALDVAKTQWYHFTAIVIAGMGFFTDAYDLFCISLVTKLLGRLYYTDIRNPKPGVLPPNVQAAVTGVALCGTLAGQLFFGWLGDKLGRKRVYGLTLMLMVLCSIASGLSFGDTPKGVMATLCFFRFWLDFGIGGDYPLSATIMSEYANKKTRGSFIAAVFAMQGFGIMAGGIVALIVSSAYDHKYDLPSYKDNPAGSKVDSLDYVWRIILMFGAVPAALTYYWRMKMPETARYTALVAKNAKQAASDMSKVLQVEVEAEEDKLQHMVESENQKYGLFSKEFAKRHGLHLVGTTVTWFLLDIAFYSQNLFQKDIFTAIGWIPPAQDMNAIHEVYRIARAQTLIALCSTVPGYWFTVAFIDIIGRFAIQLMGFFFMTVFMFALAIPYNHWKNHNNIGFVVMYSFTFFFSNFGPNATTFVVPAEIFPARLRSTCHGISAAAGKAGAIVGAFGFLYAAQSTNPNKVDHGYPTGIGVKNSLIVLGVINFFGMVFTLLVPESKGKSLEELSGENEDDGAEAIEMAGSARTVPV | 6.65 mM
